The data set in a line: soluble on expression in E. coli; label from the status in PepcDB or PDB records.
Consider “MSLTEPDSKPKKGRAGRKKAEPVRPPEQFLELAELLDYVGQVIARGVPGGVWVRAEIASLTDRRHLYLDLVQAGEGGAGGVGEVAKCRATVWARERFALEAKFRGATSGATLSAGLKVLLFGTAEFHPQYGFSFNVLDISPEYTLGDAALRLEAMRAELVAEGSYGLNRLLPVPTDFARVAVIAPREAAGLGDFRREADPLEAAGLVEFHYLEATFQGREAGASLLRAVAAARELHQEKALDALFVIRGGGAVTDLAWLNDLELARALATFPAPVVTGLGHARDDTLPDEVACLRTDTPSKAAAYLVRTVVNAAAQAQEAARTIRAEAARVLVEAEAAAAWARDRALSSAVRRVDAAAAEVDALMRQALGLTPQRTLARGYALVRDAAGQPVTRAAGARAGEPLTLEWSDGSVEGHHHHHH”, for which the “soluble on expression in E. coli” value is listed as “soluble”.
To “MSLTERLSPVEIMGALVAFPTVSRDTNLPLVDWVETYLAGHGITAHRWVDPEQPHKAALFAHVGPWEEGAVVLSGHTDVVPIDGQPWDSDPFTVVERDGKYFGRGTCDMKGFDALAIWALVEGRYRDLKRPLQLALSFDEEVGCTGAPPMIVEMQNHLPKGSAVIVGEPSMMQAVTGHKGGFGYDTRVLGFEVHSSIMHTGVNAIMAAAPLIDWANHRNAENRAATPSALAAMFDPPWTTCHVGMISGGTAHNITAKECRFAMDFRIVPGEAKERWRDAYFAVAREVEAQMQAVHPEARIDLSEQFHVPPLVPEQEGEAEMLVRALTGDNAGHVVSYGTEAGQFQEAGYSAVICGPGDIAQAHQPNEFITVAQFDAGHGFMARLLDRLSEGHHHHHH” belongs “soluble”.
Take “MSLTFDFFEGPAGSGKTFSMVAHARQLIESDALGEGQRMLALTFMNGARRRLTSNLNAEASFRRKFDCLTFDSFAQSLAKRRSAKLTDEMRQQAEELGQFHGPCFLACELLNDVEVRRWVARTYPLVLVDEAQDLDVHRQGIVLGLKECCTTVVAADSFQCLSDGQETADFIDRLLRAGTTHTLTQSHRTNKAGLLAAALAVRNGEDIRAVLNEEAIGKTNRVHWIGEGIELVEVPATARNSGLLAWNLAFQLRLGSDDVALLTPDSANTIIRNAIGTVASKQRPWPHNAFSVSWEGGDSSVADELAEAIGFPDTAPYDEVCALLEEHSAQPMVKTVIRRIRRLQRVTGQSEFEKAQLVSFISDAVRTNTRLGFKKSAKIKAMSIHGAKNREFDRVIVLWPQSATGSDEHKRRLLYNAMTRTKNHCTVIVLGTGRLNSAPFAEGHHHHHH”: the “soluble on expression in E. coli” value is “soluble”.
To “MSLTGQAEAPFIRHGYFKFADGVIVSVAEGTPSPEEIDRVEVIDGKGKWVMPGMINTHGHLGMSLLRGHSDDLPLQSWLTEKMWPFEGKMDREAVHHARQLAMAEMIKSGTTTFLEMYHLYMDDLAEAVVEQGPRAVLMRSMIGLCSESEQREKLKEAVTFATTWNGDGNGRITTMMAPHAPYTCPPSFIEMIVDEADRIDLPLHTHMAETQREVEEHRKTYGVHPLVHFEQLGFLKDRHWLLAHCVHLGEEELDILEQHPSVHVSHNPMSNLKLGSGIANVQSMLERGINICLGTDSVASNNHLDLVEEMRIAALLQKGAVLDPTAIPAETAIAMATKNGAKALRLPQVGTIEAGKRADFIMIDPQCLHLQPHEHVMSHLVYALKGADVQDVFVEGAPLMLNKELKTFDEEKLQFEANAHYQRICEKLKEGHHHHHH” belongs “not soluble”.
On to “MSLTIIHPLLASRSAPNYRQSWRLAGVWRRAINLMTESGELLTLHRQGSGFGPGGWVLRRAQFDALCGGLCGNERPQVVAQGIRLGRFTVKQPQRYYLLRITPPAHPQALAVAWMQRAEETGLFGPLALAASDPLPAELRQFRHCFQAALNGVKTDWRHWLGKGPGLTPSHDDTLSGMLLAAWYYGALDARSGRPFFACSDNLQLVTTAVSVSYLRYAAQGYFASPLLHFVHALSCPKRTAAAIDSLLALGHTSGADTLLGFWLGQQLLQGKEGHHHHHH”, for which the “soluble on expression in E. coli” value is “soluble”.
In the case of “MSLTIVAPMDEILERAHVVALPMRVKFRGIMVREAVLFDGPKGWGEFSPFVEYGVQEAAQWLRCGLEMAFQGPPPMIRDAVEVNATIPAVSPDQVPEILARYPGCTTVKVKVAEGDDAARVAMVREVLPDARIRVDANRGWTVDQAVAASKHLGELEYMEQPCASVAELAELRRRISVPIAADESIRRVSDPYEVARLHAADVAVVKAAPLGGPRNIVDIAKFYQQRGLSLTVASALDTGVGMNAGIAVAAAIDSNPAGLATQRLFVEDVTEPRTIVDGKMSVEMLAPDPARLAEFEVTGPRRDWWLDRVRGALECLHDFIPEGHHHHHH”, the “soluble on expression in E. coli” value was “soluble”.
To “MSLTIYHPAELPQRQAEKSPNKTIIKYYDRESKQWRNISWSKFAAGVMNAAKALAEIGLESGERIGIYSPNMVHCLYTELGAFAMRGVVVPLYATSSPEQLRFIVEDSSMETLFVGEQFQYNNAYRVQKEYGTLKRIVVFDERVVLNPEDKTSKYFSEFVRLGDSMPNETKVKVSSREAIPSDPALIIYTSGTSGRSKGVLLLHSNLMYQMKVHSEHIPVYGPGELSIAFLPMSHIFEKAWTLFCLTTGTRIAILRDPKKVLEALPQIRPSLMCNVPRFWEKVYQGVNEKMASSPRILKGVYRRAMAVGQRYRLDYWNEGKRAPLLLSMQYAFYNCTIFTLLKRVLGLQRGRYFPTAGAPLSDEINIFLQSVNIPIIVGYGLSETTATVSFYPQRGFKIGSMGKVMPGLDARIDPDNNEILVKGESVMSEYYNLPEETAGAFTPDGYFRTGDAGRMDPDGTLYFLERIKDLYKTANGKYIAPQMIEGMLTKDPIIEQIAVIGDRFKYVSALVYPNWELVRQAAIKRGLEQAREGHHHHHH” belongs “not soluble”; to “MSLTKKELPLDGLIPYCEQCGDFRFPVFSVAVSMIVMNEGGDQVLLIKQYWKDSYILVAGYVNKGENAEDSCRRELMEELHLTAKSLHFNRSQYFAPSNTLMLNYTVTVDQAEKVSPNEEIDAWNWLSIDEARRQIRPNSLARTFLLEYLNKCKLHREGHHHHHH”, “soluble”.
To “MSLTKLIVICGATATGKSGLALNLAMRLGSVILSADSRQVYREFDIGTAKPTLAEQRAVPHYLIDICAPRETMTVADYQEQAQALINSLPVSPLLLVGGTGLYIRSIVQGMKIPRVAPNYELRSQLASLGQTTLYGILQQVDPIAAQKIHPNDPVRTLRAVEVFYITGIPISAQQGENPPDYPILQIGLDCEMERLTERIHKRTEQMITDGLVGEVEYLCQKYGAELPLLNTLGYQEIKQYLTGEISLEAAKELTVLHTRQFAKRQRTWFRASPQIEWFNADHPDLLDIVCQHIQQPEGHHHHHH” belongs “soluble”; to “MSLTKMRESEIIRMFIEEFDNHALGDDAGFVRFNDSWLLVTSDMLVWRTDVPDFMTPEEAGKKVVTMNVSDIAAMGGLPLAFFFSLGVPENTDEKTLRGIAKGINKGAKEYGVKIVSGDTNEAREIIIDGGAIGRGSRLLLRSNAKPGDLVCVTGELGRPLTALLLWLKGEEIPPKILEKAKNPKAREREGIELSNYANSAIDISDGLSKELWEIARSSNVRIVIDEDKIPVNEEVREIVKDPIKIALASGEEFELVFTIPKENLGNISFDFTIIGRVEEGEGVYIKREDKMERLPILGWEHLKGGDYVNLEGHHHHHH”, “soluble”; to “MSLTLFHAPRSRSTRIVTLLRELDAIDKVAIKIVDITRGDGSGRKDPKNLHPEGKVPLLDHDGVVIWESIAIIQYLTDLFPEKKMAPVAGDPQRGRYLSWLAWYAGVVEPVLIMQAAGISHPFVDFTFRSPAELAARLETALKDCPYLMGERYTAVDLLLHSPFAWCPAATPESDVVKAWIERCGERPSLQWTANYDACTVVAEGHHHHHH”, “soluble”.
To “MSLTNFVGSVLEATKEAIRALNPQNSTIYESLMVGAGGDVSLKADLMCEEILSARLRHFGHIHSEESGLIEGESQDIIYLDPLDGSTNLSSLIPYYGTSVALCDPEGRTKAAAVINFCSGETFIKTDAFALHGSIWQPIDTFVPIRPLEHASKIGIFEGSHRNAPWVLGLHQKGLKFRSPGAIALSMAYAHNVSFVLFDGEIREYDTKAGLFLCSDLHIHHDERALLISRDPIIFENLLELISQKGEGHHHHHH” belongs “soluble”; to “MSLTNLDFHIVKRIRQRIAQGGDNAALKHKQNGQWQAINWHQFGEQLDELSMALLAQGIGVQDKIAIFSNNMPRWTIADFAALQIRAVTVPIYPTNTPEQAAYILQNADVKVVFVGEQAQFDAALSQFEQCPELRLIVAMNANIDLKQASCAMHWDEFVAQSHHQDRAPLDALIEQANYDDLFTLIYTSGTTGTPKGVMLDYRNIGAQLEGHDQRLNLTQEDVSLCFLPLSHVFERAWTAYVLYKGATNCYLQDVAHVREALAEVRPTVMCAVPRFYEKIFSAIHEKVVKAPLVRKVLFTWAVNMGAKMAVCRQQQRQPSWMLKQSHQFADKLVLSKLRALLGGRINFMPCGGAKLDETIGRFFHAIGINVKLGYGMTETTATVSCWDDHCFNPDSIGLSMPGAQVKIGENNEILVRGPMVMRGYYKLDKETTESFDEQGFLKTGDAGHIDENGNLFITDRIKELMKTSGGKYIAPQVIEGAIGKDHFIEQIAVIADTRKFVSALIVPCFDSLEEYAKELNIKYHDRLELIKHSQVLEMFEKRVNELQKELAKFEQVKKFRLLPKAFSMDSGELTPTQKLRREGHHHHHH”, “soluble”.
Turning to “MSLTNNVIHLIPEIERILRIKYDDKQKELFYKINENNILVLTGFAGTGKSSVLNGLLNLFDKKNITYKLMSPTAKAAKRMEECTGKKASTIHRALGLAEGKFLVNEKNPFAEDVIIIDETSMVDIYLFLAVLKGIKNTTKLLCLGDYGQLESISAGNVLFDMIQGGIPCVKLEKIFRQKEDSSLLNVITNIRNGDNPLKNTHKTYLELGRDCKFWLGKKEQTLSRVLLCYKECLKHFSREDIMVLCPMKKGNSGVNKLNQELQKIANSQNTEELKLKDCAYKKEDLVMHIKNDYNANIFSEDCKDTIAKGIFNGDAGKIEKIDLENQKLYVSYDSGIVEYDNSNLNELMLSYALTIHKVQGSQSKVVIVALDMSHYKMLKRSLLYTAASRCVELLIFICDPKAFSIALNNNQVTHKNTFLGELLKISEGHHHHHH”, the “soluble on expression in E. coli” value was “not soluble”.
On to “MSLTPATRNNDSAVAVADAFDDTGDGPPTAARFAALAACWRQPDDDLQAALAAETDTTVDAQSLRAEYTRLFVGPGPSQSPPYESVYRDGERDADLGPVYGSSTQAVARWYSEYGLQPAASESAPPDHLATELEFAAYLREHEGAETLEQFLTEHPRNWVESFARRVRDADPKPFYRTLLNVTVDTLARADTPLEGHHHHHH”, for which the “soluble on expression in E. coli” value was “not soluble”.
To “MSLTQREEELARVLSGPEFATIRPDDLSVLDYSLLTLRRARLLNGAGFAANSLWLGRGDSARFPEFLRTMGWIGAYDLSLLNVLVSHQIAGDALLSHGGPEQLDAWAGEIDAMERMYCFAGSELLAGSDLKRVRTTAVYDPHGRSLVLNTPRPADSKVWTGNSLHTGDVAMVLARLEVGGRDEGHHWLRVPLREAGAVLPGVRIGRAEPKGGVTANQTGVLTFTDHRLPLSALMNRWASIDEDGTYRSPLPRHRRFEECLATFTHERLFPSVGAAYAQLLACTITTRFAAVKQTFGRPLIGHEHYRMRLSAAVGRSLAARHAMTALAEVAVARSAEGAPARDQVLHALISCGKSGCTGDARQTLAETRELCGGLGYHDANQIAPLLHDYEIAVTFGGDNTVLGYQATRFALREGHHHHHH” belongs “not soluble”; to “MSLTQSHHDHVEKQFSSQASEYLTSTVHASGRDLQRLAVRLADYPDASVLDMGCGAGHASFVAAQNVSTVVAYDLSAHMLDVVAQAAEARQLKNITTRQGYVESLPFADNAFDIVISRYSAHHWHDVGAALREVNRILKLGGKLIVMDVMSPGHPVRDIWLQTVEALRDISHTRNYASGEWLTLISEANLIVDNLITDKLPLEFSSWVARMRTPEALVDAIRIYQQSASTEVKTYFALQNEGHHHHHH”, “not soluble”.
